Experimental data taken from PMC9482650, “Quantitative fragmentomics allow affinity mapping of interactomes” (Nature Communications, 2022).

T1: TJP3_3, O95049
T1 sequence (O95049 375-456, limits assumed, looked up): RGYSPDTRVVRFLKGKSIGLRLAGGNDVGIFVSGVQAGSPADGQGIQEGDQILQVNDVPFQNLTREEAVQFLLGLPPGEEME

T2: LRRC7, Q96NW7
T2 sequence (Q96NW7 1440-1537, limits assumed, looked up): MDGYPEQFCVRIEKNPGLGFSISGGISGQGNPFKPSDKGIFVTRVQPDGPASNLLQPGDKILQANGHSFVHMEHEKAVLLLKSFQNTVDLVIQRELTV

T3: APBA3_1, O96018
T3 sequence (O96018 389-490, limits assumed, looked up): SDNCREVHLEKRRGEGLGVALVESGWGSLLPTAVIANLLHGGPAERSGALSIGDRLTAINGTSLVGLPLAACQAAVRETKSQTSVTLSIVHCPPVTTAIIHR

T4: DFNB31_2, Q9P202
T4 sequence (Q9P202 274-371, limits assumed, looked up): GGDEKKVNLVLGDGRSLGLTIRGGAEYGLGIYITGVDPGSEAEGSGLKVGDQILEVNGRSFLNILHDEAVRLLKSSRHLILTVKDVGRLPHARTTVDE

T5: NHERF3_1, Q5T2W1
T5 sequence (Q5T2W1 4-100, limits assumed, looked up): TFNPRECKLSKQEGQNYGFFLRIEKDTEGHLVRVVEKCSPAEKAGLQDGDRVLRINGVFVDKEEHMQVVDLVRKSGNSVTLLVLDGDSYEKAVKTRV

T6: SNTA1, Q13424
T6 sequence (Q13424 82-180, limits assumed, looked up): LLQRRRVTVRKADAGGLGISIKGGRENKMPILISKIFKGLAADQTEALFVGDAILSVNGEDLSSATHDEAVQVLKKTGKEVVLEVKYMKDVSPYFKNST

T7: APBA2_1, Q99767
T7 sequence (Q99767 563-664, limits assumed, looked up): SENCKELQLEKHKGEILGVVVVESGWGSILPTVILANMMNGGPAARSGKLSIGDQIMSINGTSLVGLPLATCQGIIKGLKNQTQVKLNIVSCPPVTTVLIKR

T8: GRIP1_7, Q9Y3R0
T8 sequence (Q9Y3R0 999-1096, limits assumed, looked up): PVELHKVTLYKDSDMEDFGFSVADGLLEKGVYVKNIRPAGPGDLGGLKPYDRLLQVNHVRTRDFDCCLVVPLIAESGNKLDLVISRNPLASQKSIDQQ

T9: MPDZ_12, O75970
T9 sequence (O75970 1857-1958, limits assumed, looked up): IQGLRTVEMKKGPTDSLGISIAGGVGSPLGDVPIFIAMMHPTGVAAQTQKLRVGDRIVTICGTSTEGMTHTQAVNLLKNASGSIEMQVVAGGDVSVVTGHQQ

T10: RHPN1, Q8TCX5
T10 sequence (Q8TCX5 508-602, limits assumed, looked up): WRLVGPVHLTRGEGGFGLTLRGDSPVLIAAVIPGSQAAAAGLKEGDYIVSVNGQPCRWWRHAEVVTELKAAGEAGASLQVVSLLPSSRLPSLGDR

T11: PTPN13_1, Q12923
T11 sequence (Q12923 1088-1188, limits assumed, looked up): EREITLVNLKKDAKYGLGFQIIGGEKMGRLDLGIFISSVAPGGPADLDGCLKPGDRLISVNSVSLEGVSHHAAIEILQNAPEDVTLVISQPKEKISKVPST

T12: MPDZ_10, O75970
T12 sequence (O75970 1624-1722, limits assumed, looked up): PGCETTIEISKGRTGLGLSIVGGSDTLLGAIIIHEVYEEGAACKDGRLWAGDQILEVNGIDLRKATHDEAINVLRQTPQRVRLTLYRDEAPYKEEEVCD

T13: SYNJ2BP, P57105
T13 sequence (P57105 8-110, limits assumed, looked up): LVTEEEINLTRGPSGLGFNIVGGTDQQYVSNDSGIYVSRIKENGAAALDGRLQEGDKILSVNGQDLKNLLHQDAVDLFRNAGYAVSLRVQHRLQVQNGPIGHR


Key:
Test in all cases: holdup assay
Set-up in all cases: key: below the threshold = too weak to quantify, mostly under pKd 3.1 to 4
Settings in all cases: plain residues with an end cap or a label only (N-terminal biotin on a linker: ado-ado)
TJP3_3, O95049 = target: T1, TJP3_3, O95049
MAGI2_2, Q86UL8 = target: MAGI2_2, Q86UL8
LRRC7, Q96NW7 = target: T2, LRRC7, Q96NW7
PDZRN4_1, Q6ZMN7 = target: PDZRN4_1, Q6ZMN7
APBA3_1, O96018 = target: T3, APBA3_1, O96018
DFNB31_2, Q9P202 = target: T4, DFNB31_2, Q9P202
DLG1_1, Q12959 = target: DLG1_1, Q12959
DLG1_3, Q12959 = target: DLG1_3, Q12959
MAGI1_2, Q96QZ7 = target: MAGI1_2, Q96QZ7
NHERF3_1, Q5T2W1 = target: T5, NHERF3_1, Q5T2W1
SNTA1, Q13424 = target: T6, SNTA1, Q13424
CASK, O14936 = target: CASK, O14936
APBA2_1, Q99767 = target: T7, APBA2_1, Q99767
GRIP1_7, Q9Y3R0 = target: T8, GRIP1_7, Q9Y3R0
MPDZ_12, O75970 = target: T9, MPDZ_12, O75970
RHPN1, Q8TCX5 = target: T10, RHPN1, Q8TCX5
GRIP2_7, Q9C0E4 = target: GRIP2_7, Q9C0E4
DLG1_2, Q12959 = target: DLG1_2, Q12959
LNX1_3, Q8TBB1 = target: LNX1_3, Q8TBB1
PTPN13_1, Q12923 = target: T11, PTPN13_1, Q12923
Inadl_5, Q8NI35 = target: Inadl_5, Q8NI35
MPDZ_10, O75970 = target: T12, MPDZ_10, O75970
NHERF4_4, Q86UT5 = target: NHERF4_4, Q86UT5
SYNJ2BP, P57105 = target: T13, SYNJ2BP, P57105
MAGI2_4, Q86UL8 = target: MAGI2_4, Q86UL8
Chain of MAGI2_4, Q86UL8 (Q86UL8 772-865): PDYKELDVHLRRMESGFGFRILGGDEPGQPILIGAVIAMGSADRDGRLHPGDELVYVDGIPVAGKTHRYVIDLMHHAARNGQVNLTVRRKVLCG

Chain of GRIP2_7, Q9C0E4 (Q9C0E4 934-1023): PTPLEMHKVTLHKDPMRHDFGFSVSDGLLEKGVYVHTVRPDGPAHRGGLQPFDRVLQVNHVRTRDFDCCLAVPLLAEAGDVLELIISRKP
Chain of PDZRN4_1, Q6ZMN7 (Q6ZMN7 213-318): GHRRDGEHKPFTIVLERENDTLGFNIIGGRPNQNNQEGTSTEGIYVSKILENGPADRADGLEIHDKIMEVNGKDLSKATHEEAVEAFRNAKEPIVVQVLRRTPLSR
Chain of CASK, O14936 (O14936 487-570): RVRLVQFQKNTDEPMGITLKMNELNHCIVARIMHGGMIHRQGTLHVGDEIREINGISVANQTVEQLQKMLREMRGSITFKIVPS
Chain of MAGI1_2, Q96QZ7 (Q96QZ7 456-580): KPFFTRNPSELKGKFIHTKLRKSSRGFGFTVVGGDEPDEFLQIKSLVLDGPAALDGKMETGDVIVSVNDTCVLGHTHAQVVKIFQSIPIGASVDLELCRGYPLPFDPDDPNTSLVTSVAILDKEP
Chain of NHERF4_4, Q86UT5 (Q86UT5 464-550): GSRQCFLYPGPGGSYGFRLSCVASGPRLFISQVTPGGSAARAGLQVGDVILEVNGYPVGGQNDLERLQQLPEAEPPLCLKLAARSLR
Chain of Inadl_5, Q8NI35 (Q8NI35 673-780): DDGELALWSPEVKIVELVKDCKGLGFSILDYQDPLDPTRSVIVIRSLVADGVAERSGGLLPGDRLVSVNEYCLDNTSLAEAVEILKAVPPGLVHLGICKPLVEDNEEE
Chain of LNX1_3, Q8TBB1 (Q8TBB1 500-596): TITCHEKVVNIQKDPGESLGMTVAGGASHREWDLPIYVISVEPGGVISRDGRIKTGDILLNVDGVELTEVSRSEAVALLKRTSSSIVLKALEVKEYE
Chain of MAGI2_2, Q86UL8 (Q86UL8 410-522): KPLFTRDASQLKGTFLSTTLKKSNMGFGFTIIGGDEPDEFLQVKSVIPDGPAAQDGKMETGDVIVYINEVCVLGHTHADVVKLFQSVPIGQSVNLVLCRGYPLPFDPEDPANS

Row | Binder | pKd (TJP3_3, O95049) | pKd (MAGI2_2, Q86UL8) | pKd (LRRC7, Q96NW7) | pKd (PDZRN4_1, Q6ZMN7) | pKd (APBA3_1, O96018) | pKd (DFNB31_2, Q9P202) | pKd (DLG1_1, Q12959) | pKd (DLG1_3, Q12959) | pKd (MAGI1_2, Q96QZ7) | pKd (NHERF3_1, Q5T2W1) | pKd (SNTA1, Q13424) | pKd (CASK, O14936) | pKd (APBA2_1, Q99767) | pKd (GRIP1_7, Q9Y3R0) | pKd (MPDZ_12, O75970) | pKd (RHPN1, Q8TCX5) | pKd (GRIP2_7, Q9C0E4) | pKd (DLG1_2, Q12959) | pKd (LNX1_3, Q8TBB1) | pKd (PTPN13_1, Q12923) | other results
1 | PSVGSKKTVL [REELD1, A0A1B0GV85] | below the threshold | below the threshold | below the threshold | below the threshold | below the threshold | below the threshold | below the threshold | below the threshold | 3.56 | 3.72 | 3.73 | below the threshold | below the threshold | below the threshold | below the threshold | 3.92 | below the threshold | 3.79 | below the threshold | below the threshold | pKd (Inadl_5, Q8NI35): below the threshold; pKd (MPDZ_10, O75970): below the threshold; pKd (NHERF4_4, Q86UT5): below the threshold; pKd (SYNJ2BP, P57105): below the threshold; pKd (MAGI2_4, Q86UL8): below the threshold
2 | SFISKKEWYV [NECTIN1, Q15223] | 4.1 | 4.96 | below the threshold | below the threshold | below the threshold | below the threshold | 3.6 | below the threshold | 4.28 | 4.28 | below the threshold | below the threshold | below the threshold | 5.06 | below the threshold | below the threshold | 5.62 | 3.77 | 4.49 | below the threshold | pKd (Inadl_5, Q8NI35): 4.82; pKd (MPDZ_10, O75970): below the threshold; pKd (NHERF4_4, Q86UT5): below the threshold; pKd (SYNJ2BP, P57105): below the threshold; pKd (MAGI2_4, Q86UL8): 3.8
3 | LKDDELKTKL [SLCO1A2, P46721] | below the threshold | below the threshold | below the threshold | below the threshold | below the threshold | below the threshold | below the threshold | below the threshold | below the threshold | 4.87 | below the threshold | below the threshold | below the threshold | below the threshold | below the threshold | 3.82 | below the threshold | below the threshold | below the threshold | below the threshold | pKd (Inadl_5, Q8NI35): below the threshold; pKd (MPDZ_10, O75970): below the threshold; pKd (NHERF4_4, Q86UT5): below the threshold; pKd (SYNJ2BP, P57105): below the threshold; pKd (MAGI2_4, Q86UL8): below the threshold
4 | DRIQSCLSDA [SBF1, O95248] | below the threshold | below the threshold | below the threshold | below the threshold | below the threshold | below the threshold | below the threshold | below the threshold | below the threshold | below the threshold | below the threshold | below the threshold | below the threshold | below the threshold | 3.49 | below the threshold | below the threshold | below the threshold | below the threshold | 3.49 | pKd (Inadl_5, Q8NI35): below the threshold; pKd (MPDZ_10, O75970): below the threshold; pKd (NHERF4_4, Q86UT5): below the threshold; pKd (SYNJ2BP, P57105): below the threshold; pKd (MAGI2_4, Q86UL8): 3.7
